The text below walks through data of the DeepSol protein solubility set.

This data set can be described thus: soluble on expression in E. coli; label from the status in PepcDB or PDB records.
With “MKTLTEIKQTPKGIIKADESFNQVKDKIRLPRRILYLGCGSSHFLAKLLAMVTNMHGGTGVALPCSEFLYSKEAYPIGKPELVVGISRSGETTEVLLALEKINTPKLGISAYESSLTRACDYSLVVPTIEESVVMTHSFTAFYFAYLQLLRHSYGLPLLEATEVAKATEKALEYENYIKEIVEDFDFQNVIFLGSGLLYPVALEASLKMKEMAIFWSEAYPTFEVRHGFKAIADENTLVVLMAQELFEWHKKLVNEFKGQRARVLLISNSQQEFGQDYSIEVPRLSKDATPIPYLPVVQLLSYYKAVARGLNPDNPRFLDKVVRWLEHHHHHH”, the “soluble on expression in E. coli” value is “soluble”.

On to “MPSLGEAPQDLQRSQERRRIERIFAQGGKGVASPHRFPGPLPMLQNIPTHVIAGPLGAGKTSLIRHLLSQRPAAERWAVLINEFGQIGLDAALLTRDEDGIALGEVAGGCLCCVNGAPFQVGLGRLLRKARPDRLLIEPSGLGHPAQLLKQLNEAPWKGVLAVQPCVLVLDAQALAAGKPLPRAQQDALSSAGLLVLNKDELLSDSDRLRVLEQLPDLPLFWTRHAALPLAELPGLGASAEAALEQSDIPQGLAQLPAVWSDPTLPICLSQSQEDGWSIGWRWHPSQQFDLVRVEHWLQNLDWRRAKLVLHSDQGWRSGNGLDNSPLNWLPSEWRRDSRLELIFSSPQDIAVLQASLDACRLLEHHHHHH”, for which the “soluble on expression in E. coli” value is reported as “not soluble”.

For “MSLGEKHHMVLNRDQGITTRFSPQQKRLQLSSPKPYLLFFFTASCGACKEAIPYLNAIEEQWGERFEVIGVLGGSRGIKSDLEFLKRHSIRFKVLSDPSSSDYLSRAVGGVMGVPLFFFFDETGAPKEHFLGLVPQRVLEEEVRSLLEGHHHHHH”, the “soluble on expression in E. coli” value is “soluble”.

For the sequence “MSTAFNNIRQGLSEAIAHAKGNVHGVRVHRPRQVDVKAVRAKVGMTQEQFAAQFGFSPATLRHWERGDRTPRGAALVLLNVIDRNPQAVIEALA”, the “soluble on expression in E. coli” value is given as “not soluble”.

Regarding “MGHHHHHHSHQGEEELVSQTDVKTFLEALPQESWQNKHAGSNGNRATNGAPSLVSRGMQGASANTLNSETSTKRAAVYRMNRNHRGLCVIVNNHSFTSLKDRQGTHKDAEILSHVFQWLGFTVHIHNNVTKVEMEMVLQKQKCNPAHADGDCFVFCILTHGRFGAVYSSDEALIPIREIMSHFTALQCPRLAEKPKLFFIQACQGEEIQPSVSIEADALNPEQAPTSLQDSIPAEADFLLGLATVPGYVSFRHVEEGSWYIQSLCNHLKKLVPRMLKFLEKTMEIRGRKRTVWGA”, the “soluble on expression in E. coli” value is recorded as “not soluble”.

For the sequence “MKILVTSGGTSEAIDSVRSITNHSTGHLGKIITETLLSAGYEVCLITTKRALKPEPHPNLSIREITNTKDLLIEMQERVQDYQVLIHSMAVSDYTPVYMTGLEEVQASSNLKEFLSKQNHQAKISSTDEVQVLFLKKTPKIISLVKEWNPTIHLIGFKLLVDVTEDHLVDIARKSLIKNQADLIIANDLTQISADQHRAIFVEKNQLQTVQTKEEIAELLLEKIQAYHSLEHHHHHH”, the “soluble on expression in E. coli” value is “soluble”.

“MYLINQNGWIEVICGSMFSGKSEELIRRVRRTQFAKQHAIVFKPCIDNRYSEEDVVSHNGLKVKAVPVSASKDIFEHITEELDVIAIDEVQFFDGDIVEVVQVLANRGYRVIVAGLDQDFRGLPFGQVPQLMAIAEHVTKLQAVCSVCGSPASRTQRLIDGEPAAFDDPIILVGASESYEPRCRHCHAVPANKDK”: the “soluble on expression in E. coli” value is reported as “not soluble”.

Regarding “MYPSDFASQLNVLSLKEMKEAIHHLLDIRDENTWMLFGTLPIYPCLNDEYDQHLLQRLRKSKNVTMRNDPDGRSRLNVNVFTGDVIVTDFGDENGTISNIQKDKLTDVFNQWLNTDLAQSLNCHCAEYQCLGPNVLVKNMYYPNTDFKKKEQIMHQHQIFS”, the “soluble on expression in E. coli” value is recorded as “not soluble”.

As for “MEWLNEPPNWSHSDQKIIVTTSPKTDFWRITHYGFIRDSGHFYFDRVSTDFVVDVKIKGNYKDLYDQAGIMIRADEQHWIKTGIEYVDGVQNLSAVVTHNYSDWSFTPLLNPPNIFQVRVERCQEAIHIAYLDEYSRYVPFRMAYFPVALDIQVGIMCASPQGNGYEVIFEDYQLTKKGEKLSLEHHHHHH”, the “soluble on expression in E. coli” value was “not soluble”.

As to “MGPLWLDVAGYELSAEDRAILAHPTVGGVILFGRNYHDNQQLLALNKAIRQAAARPILIGVDQEGGRVQRFREGFSRIPPAQYYARAENGVELAEQGGWLMAAELIAHDVDLSFAPVLDMGFACKAIGNRAFGEDVQTVLKHSSAFLRGMKAVGMATTGKHFPGHGAVIADSHLETPYDERETIAQDMAIFRAQIEAGVLDAMMPAHVVYPHYDAQPASGSSYWLKQVLREELGFKGIVFSDDLSMEGAAVMGGPVERSHQALVAGCDMILICNKREAAVEVLDNLPIMEVPQAEALLKKQQFSYSELKRLERWQQASANMQRLIEQFSEHHHHHHHHHH”, the “soluble on expression in E. coli” value is “soluble”.

“MIDLYYAPTPNGHKITLFLEEAELAYRLLKVDISKGNQFRPDFLAISPNNKIPAIVDHAPADGGQPLSLFESGEILLYLAEKSGKLLSGELRERHTTLQWLFWQVGGLGPMLGQNHHFNHFAPQAIPYAIERYQVETQRLYNVLNKRLETSPWLGGDHYSIADIASWPWVNAHQRQRIDLDTYPAVYNWFERIRTRPATARALLQAQLHCNSTKA”: the “soluble on expression in E. coli” value was “not soluble”.

Regarding “VSAADTAEDLPEQFRIRRDKRARLLAQGRDPYPVAVPRTHTLAEVRAAHPDLPIDTATEDIVGVAGRVIFARNSGKLCFATLQDGDGTQLQVMISLDKVGQAALDAWKADVDLGDIVYVHGAVISSRRGELSVLADCWRIAAKSLRPLPVAHKEMSEESRVRQRYVDLIVRPEARAVARLRIAVVRAIRTALQRRGFLEVETPVLQTLAGGAAARPFATHSNALDIDLYLRIAPELFLKRCIVGGFDKVFELNRVFRNEGADSTHSPEFSMLETYQTYGTYDDSAVVTRELIQEVADEAIGTRQLPLPDGSVYDIDGEWATIQMYPSLSVALGEEITPQTTVDRLRGIADSLGLEKDPAIHDNRGFGHGKLIEELWERTVGKSLSAPTFVKDFPVQTTPLTRQHRSIPGVTEKWDLYLRGIELATGYSELSDPVVQRERFADQARAAAAGDDEAMVLDEDFLAALEYGMPPCTGTGMGIDRLLMSLTGLSIRETVLFPIVRPHSN”, the “soluble on expression in E. coli” value is “not soluble”.

Take “MSLIELRDKTILIDGRPRLVLSGEVHYFRLRREDWQDRLDKLKAAGCNTVASYIPWLCHETVEGRIDLDGRSRPELDLGAFIDLCRANGLWFIARPGPFVMAELKNEGLPYWLYEKHPEIVPVGWDGKPATTHTVDYLAPGFLDAARRWYDAVMAVITPRLQPGGGNVIALQLDNEIGMLSWLSNCPDLTENVLADFAAWLKVRHRPESLRKRYPFDPDEPEARRAGIRSPAESYALALLRDLGHYMRDRFARYVATLRSWAETAGIRGIPFVVNIHGTGGGRALSFPIGISQLYPSYTQDFGYLSGSDFYLGNLTFDNFQDLYLCNAFMEAVHRPEQPLASMEFECGDGNYGNTYGNRLDPSAADFKARMCLAQGARLLNYYLFTGGHNYRLDPPPPDGDGRIAFTGERHGFAAPVDPDGRLNYSYPRLANLTRTVAAVADKLAAMWEEHDRVAFGFIPDYFMTESRHPASAAMATIVRNLEANRGPSAWETMARAMLLGGYRFGAVDLQNRPLDVKTTPVLALGSARYMDTAVQRKLADWLSAGGGLLLYGEVPLYGMEGEPCTLLAEALGTEISGFRQASERYFLALAADGWARPRPEVRSHFAQTFAAPLAEALLRVCDTGEICGFETAVGKGRAVVIGTAYPCDIALFRTALERLGAVAALRHDCENHGIFMTSTANAAGERFIHLLNLDGFDKRFHLYEHGRPLFDGHEIELRARDGVMLPLAMREGHHHHHH”: the “soluble on expression in E. coli” value is given as “not soluble”.

Take “MEKNGLFSQRIRLRHLHTFVAVAQQGTLGRAAETLNLSQPALSKTLNELEQLTGTRLFERGRLGAQLTVPGEQFLTHAVKVLDALNTAGQALNRKEDASADVVRVGALPTAALGILPAAIGRFHQQQKSTSLQVATMNNTMLLAGLKSGEIDLGIGRMSDPELMGGLNYELLFLESLKLVVRPGHPLLQETITLSRVMEWPVVVSPKGTVPRQNAEALLQSQGCKMPAGCIETLSASLSRQLTVDYDYVWFVPSGAVKEDLRQATLVSLPVPTQSAGEPIGILTRVDIPLSTGAQMLIAAIRKSMPL”: the “soluble on expression in E. coli” value was “not soluble”.
